Biological target: T1, eIF4G (unlabeled) (Saccharomyces cerevisiae, UniProt P39935 1-952)
T1 sequence: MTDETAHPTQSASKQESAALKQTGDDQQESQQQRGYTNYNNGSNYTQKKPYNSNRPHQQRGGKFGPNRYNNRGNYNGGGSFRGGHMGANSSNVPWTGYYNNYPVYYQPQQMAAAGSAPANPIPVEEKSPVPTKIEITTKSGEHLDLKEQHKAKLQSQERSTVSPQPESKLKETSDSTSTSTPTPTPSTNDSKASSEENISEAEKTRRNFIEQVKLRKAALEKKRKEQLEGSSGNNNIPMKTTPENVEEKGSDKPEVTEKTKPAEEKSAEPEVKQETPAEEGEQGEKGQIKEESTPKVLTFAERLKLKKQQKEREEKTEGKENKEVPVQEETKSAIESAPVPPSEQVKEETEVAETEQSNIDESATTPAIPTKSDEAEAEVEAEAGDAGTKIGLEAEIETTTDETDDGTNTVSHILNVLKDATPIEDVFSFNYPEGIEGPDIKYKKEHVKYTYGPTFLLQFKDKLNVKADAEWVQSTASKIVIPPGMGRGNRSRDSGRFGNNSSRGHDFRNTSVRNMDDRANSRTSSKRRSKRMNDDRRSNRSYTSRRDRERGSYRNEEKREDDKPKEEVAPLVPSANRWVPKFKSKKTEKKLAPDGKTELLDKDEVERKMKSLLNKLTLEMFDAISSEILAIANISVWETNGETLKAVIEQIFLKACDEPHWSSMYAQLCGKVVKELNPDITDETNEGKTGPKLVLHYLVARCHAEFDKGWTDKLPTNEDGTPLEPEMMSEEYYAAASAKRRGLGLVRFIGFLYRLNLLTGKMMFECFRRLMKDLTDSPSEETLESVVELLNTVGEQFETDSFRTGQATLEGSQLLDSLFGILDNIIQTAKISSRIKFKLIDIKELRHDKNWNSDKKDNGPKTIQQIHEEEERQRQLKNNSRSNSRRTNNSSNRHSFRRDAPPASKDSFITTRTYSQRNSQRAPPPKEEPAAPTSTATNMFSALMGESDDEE
Assay: fluorescence anisotropy

B1: rpl41a 51mer-FAM (ssRNA)
RNA: GGAGACCACAUCGAUUCAAUCGAAAUGAGAGCCAAGUGGAGAAAGAAGAGA
binding result: binds
